Target: GLP-1R (Homo sapiens, UniProt P43220)
Assay: cAMP response element luciferase reporter gene assay in GLP-1R+ CHO-K1 cells
Assay type: cell-based
Settings: 1 μM of the ligand, Figure 3A

GLP-1R, sequence (P43220 24-463): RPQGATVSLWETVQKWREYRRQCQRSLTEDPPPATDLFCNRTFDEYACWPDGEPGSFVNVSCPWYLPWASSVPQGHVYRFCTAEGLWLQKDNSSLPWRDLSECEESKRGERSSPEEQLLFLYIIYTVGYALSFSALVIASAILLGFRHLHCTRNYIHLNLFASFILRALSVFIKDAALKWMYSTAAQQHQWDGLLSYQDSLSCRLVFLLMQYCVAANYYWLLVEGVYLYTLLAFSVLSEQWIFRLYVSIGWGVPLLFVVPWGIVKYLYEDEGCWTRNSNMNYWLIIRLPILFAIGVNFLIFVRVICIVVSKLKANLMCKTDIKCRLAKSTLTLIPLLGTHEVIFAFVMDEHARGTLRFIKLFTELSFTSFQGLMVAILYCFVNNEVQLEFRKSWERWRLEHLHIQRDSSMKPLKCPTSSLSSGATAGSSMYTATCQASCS

**Q.** How did the “inhibition of GLP-1 agonism at GLP-1R” value turn out when “exendin-4_9-39: exendin-4 fragment 9-39 used at 1 μM to inhibit GLP-1R activation” was run?
**A.** inhibited

Source: paper PMC4006878 (Organic letters, 2013)
